Target: Gluconobacter oxydans dextran dextrinase Δ382C (Met1–Ser902) (Gluconobacter oxydans)
Assay: SEC; gel filtration of purified Δ382C (Fig. S8); conditions not told in the text shown

Gluconobacter oxydans dextran dextrinase Δ382C (Met1–Ser902) (enzyme)
stoichiometry N: 2

Source: PMC12446779, “Structural basis of transglucosylation in dextran dextrinase, a homolog of anomer-inverting GH15 glucoside hydrolases” (The Journal of Biological Chemistry, 2025)
